According to article PMC7954794, “Protein context shapes the specificity of SH3 domain-mediated interactions in vivo” (Nature Communications, 2021):

System: growth of yeast strains under 51 stress conditions
Test: Growth assays in 51 stress conditions (Fig. 1E-F, S2D, S5B)
Assay type: cell-based, Saccharomyces cerevisiae
Parameters: key to Growth (Fig. S2D) / growth of ABP1 SH3-swapped strains in stress condition: log2 colony size, average of median per strain (growth score)
Settings: for Growth (Fig. S2D): ABP1 SH3-swapped strains
Protocol: All WT, SH3-deleted, KO (except for CDC25 which is the only essential SH3-containing gene in yeast), ABP1 SH3-swapped, and SLA1 SH3-shuffled strains were grown on omnitrays in 1536 formats and robotically manipulated with a pin tool (the DHFR F[1,2] bait strains were used except for the KO strains). Each strain was randomly positioned in 6 replicates per plate and two plates per condition were performed, for 12 replicates per strain in total. A border of two rows and two columns of WT strains (BY4741) around the plate was used to remove border effects. Strains were grown on YPD media for two days at 30 °C. They were then replicated on 51 different media that are described in the Supplementary Table 3 and were incubated at 37 °C in a spImager custom platform with images acquired every two hours for four days. The colony sizes from plate pictures were also measured with the R package “Gitter” and the output was manually inspected. Positions with an abnormality in colony circularity were removed. The colony sizes after 74 h of incubation at 37 °C were log2 transformed and used for the analyses. First, the differences between the two plate replicates were corrected to remove plate effects. The median colony size was calculated for each strain per plate. Strains with a difference in their median colony size of more than two between the two plate replicates were removed. Finally, the average of the median colony size was calculated for each strain per condition (growth score).

B1: BBC1: yeast SH3-containing protein; SH3-deleted or knockout strain (protein, UniProt P47068 1-1157, looked up)
Myosin tail …: MSEPEVPFKVVAQFPYKSDYEDDLNFEKDQEIIVTSVEDAEWYFGEYQDSNGDVIEGIFPKSFVAVQGSEVGKEAESSPNTGSTEQRTIQPEVEQKDLPEPISPETKKETLSGPVPVPAATVPVPAATVPVPAATAVSAQVQHDSSSGNGERKVPMDSPKLKARLSMFNQDITEQVPLPKSTHLDLENIPVKKTIVADAPKYYVPPGIPTNDTSNLERKKSLKENEKKIVPEPINRAQVESGRIETENDQLKKDLPQMSLKERIALLQEQQRLQAAREEELLRKKAKLEQEHERSAVNKNEPYTETEEAEENEKTEPKPEFTPETEHNEEPQMELLAHKEITKTSREADEGTNDIEKEQFLDEYTKENQKVEESQADEARGENVAEESEIGYGHEDREGDNDEEKEEEDSEENRRAALRERMAKLSGASRFGAPVGFNPFGMASGVGNKPSEEPKKKQHKEKEEEEPEQLQELPRAIPVMPFVDPSSNPFFRKSNLSEKNQPTETKTLDPHATTEHEQKQEHGTHAYHNLAAVDNAHPEYSDHDSDEDTDDHEFEDANDGLRKHSMVEQAFQIGNNESENVNSGEKIYPQEPPISHRTAEVSHDIENSSQNTTGNVLPVSSPQTRVARNGSINSLTKSISGENRRKSINEYHDTVSTNSSALTETAQDISMAAPAAPVLSKVSHPEDKVPPHPVPSAPSAPPVPSAPSVPSAPPVPPAPPALSAPSVPPVPPVPPVSSAPPALSAPSIPPVPPTPPAPPAPPAPLALPKHNEVEEHVKSSAPLPPVSEEYHPMPNTAPPLPRAPPVPPATFEFDSEPTATHSHTAPSPPPHQNVTASTPSMMSTQQRVPTSVLSGAEKESRTLPPHVPSLTNRPVDSFHESDTTPKVASIRRSTTHDVGEISNNVKIEFNAQERWWINKSAPPAISNLKLNFLMEIDDHFISKRLHQKWVVRDFYFLFENYSQLRFSLTFNSTSPEKTVTTLQERFPSPVETQSARILDEYAQRFNAKVVEKSHSLINSHIGAKNFVSQIVSEFKDEVIQPIGARTFGATILSYKPEEGIEQLMKSLQKIKPGDILVIRKAKFEAHKKIGKNEIINVGMDSAAPYSSVVTDYDFTKNKFRVIENHEGKIIQNSYKLSHMKSGKLKVFRIVARGYVGW
relative_to_wt, D_minus_WT (Bathophenanthroline 0.1uM, D = SH3 deletion (all SH3s deleted for multi-SH3 proteins), log2 colony size, 74 h at 37 °C, n = 12): -0.7326
relative_to_wt, KO_minus_WT (Bathophenanthroline 0.1uM, KO = gene deletion, log2 colony size, 74 h at 37 °C, n = 12): -0.7845
Growth (Fig. S2D) (Bathophenanthroline.0.1uM): 10.8555
Growth (Fig. S2D) (Bathophenanthroline.10uM): 10.7329
Growth (Fig. S2D) (Bathophenanthroline.1uM): 10.8406
Growth (Fig. S2D) (CaCl2.100mM): 10.8635
Growth (Fig. S2D) (CaCl2.250mM): 10.7473
Growth (Fig. S2D) (CaCl2.500mM): 10.2321
Growth (Fig. S2D) (Caffein.10mM): 10.0361
Growth (Fig. S2D) (Caffein.2mM): 11.0328
Growth (Fig. S2D) (CdCl2.100uM): 9.446
Growth (Fig. S2D) (CdCl2.10uM): 10.9111
Growth (Fig. S2D) (CdCl2.50uM): 9.87
Growth (Fig. S2D) (CuSO4.1mM): 10.4195
Growth (Fig. S2D) (CuSO4.5mM): 7.7318
Growth (Fig. S2D) (Cycloheximide.0.05.uM): 11.1604
Growth (Fig. S2D) (Cycloheximide.0.2.uM): 10.7217
Growth (Fig. S2D) (Cycloheximide.0.5.uM): 10.1165
Growth (Fig. S2D) (DMSO.2.): 11.0262
Growth (Fig. S2D) (DMSO.6.): 9.821
Growth (Fig. S2D) (DMSO.8.): 9.042
Growth (Fig. S2D) (Ethanol.2.): 10.863
Growth (Fig. S2D) (Ethanol.6.): 10.43
Growth (Fig. S2D) (Ethanol.8.): 10.2184
Growth (Fig. S2D) (Galactose.2.): 10.7901
Growth (Fig. S2D) (Glycerol.2.): 9.731
Growth (Fig. S2D) (Hydroxyurea.25mM): 10.7777
Growth (Fig. S2D) (Hygromycin.190uM): 11.0445
Growth (Fig. S2D) (Hygromycin.19uM): 11.0769
Growth (Fig. S2D) (Hygromycin.95uM): 11.0543
Growth (Fig. S2D) (MMS.0.004.): 10.9787
Growth (Fig. S2D) (MMS.0.02.): 10.743
Growth (Fig. S2D) (MMS.0.04.): 9.98
Growth (Fig. S2D) (Menadione.100uM): 10.5737
Growth (Fig. S2D) (Menadione.200uM): 10.4364
Growth (Fig. S2D) (Menadione.50uM): 10.8865
Growth (Fig. S2D) (NaCl.0.25M): 10.7759
Growth (Fig. S2D) (NaCl.1M): 9.566
Growth (Fig. S2D) (Nitroquinoline.10uM): 10.676
Growth (Fig. S2D) (Nitroquinoline.50uM): 10.6106
Growth (Fig. S2D) (Nystatin.0.01uM): 10.9601
Growth (Fig. S2D) (Nystatin.0.1uM): 11.003
Growth (Fig. S2D) (Raffinose.2.): 11.0344
Growth (Fig. S2D) (Rapamycin.10nM): 9.767
Growth (Fig. S2D) (Rapamycin.50nM): 9.406
Growth (Fig. S2D) (SC.pH3): 10.4328
Growth (Fig. S2D) (SC.pH6): 11.0565
Growth (Fig. S2D) (SDS.0.01.): 11.0008
Growth (Fig. S2D) (SDS.0.02.): 11.0385
Growth (Fig. S2D) (SDS.0.05.): 10.9076
Growth (Fig. S2D) (Sorbitol.10mM): 11.0218
Growth (Fig. S2D) (Sorbitol.1mM): 10.99
Growth (Fig. S2D) (Sorbitol.5mM): 10.8909
